From paper PMC3382207, “Proteolytic Processing of ErbB4 in Breast Cancer” (PLoS ONE, 2012)

Key:
[1] = target: T1, His-tagged extracellular subdomain IV of ErbB4 (Homo sapiens, isoform JM-a, UniProt Q15303); assay: Western blot; conditioned media of COS-7 transfectants expressing the His-tagged subdomains, blotted under non-reducing conditions, mAb 1479 as the primary antibody; anti-pentaHis as control of expression; conditions: one partner purified
T1 construct: ErbB4 extracellular subdomain IV; construct limits are in File S1; source: COS-7, transiently transfected, in conditioned medium; not shown: His tag, C-terminal, kept
T1 sequence (Q15303 whole entry, looked up, tested part not stated, canonical isoform): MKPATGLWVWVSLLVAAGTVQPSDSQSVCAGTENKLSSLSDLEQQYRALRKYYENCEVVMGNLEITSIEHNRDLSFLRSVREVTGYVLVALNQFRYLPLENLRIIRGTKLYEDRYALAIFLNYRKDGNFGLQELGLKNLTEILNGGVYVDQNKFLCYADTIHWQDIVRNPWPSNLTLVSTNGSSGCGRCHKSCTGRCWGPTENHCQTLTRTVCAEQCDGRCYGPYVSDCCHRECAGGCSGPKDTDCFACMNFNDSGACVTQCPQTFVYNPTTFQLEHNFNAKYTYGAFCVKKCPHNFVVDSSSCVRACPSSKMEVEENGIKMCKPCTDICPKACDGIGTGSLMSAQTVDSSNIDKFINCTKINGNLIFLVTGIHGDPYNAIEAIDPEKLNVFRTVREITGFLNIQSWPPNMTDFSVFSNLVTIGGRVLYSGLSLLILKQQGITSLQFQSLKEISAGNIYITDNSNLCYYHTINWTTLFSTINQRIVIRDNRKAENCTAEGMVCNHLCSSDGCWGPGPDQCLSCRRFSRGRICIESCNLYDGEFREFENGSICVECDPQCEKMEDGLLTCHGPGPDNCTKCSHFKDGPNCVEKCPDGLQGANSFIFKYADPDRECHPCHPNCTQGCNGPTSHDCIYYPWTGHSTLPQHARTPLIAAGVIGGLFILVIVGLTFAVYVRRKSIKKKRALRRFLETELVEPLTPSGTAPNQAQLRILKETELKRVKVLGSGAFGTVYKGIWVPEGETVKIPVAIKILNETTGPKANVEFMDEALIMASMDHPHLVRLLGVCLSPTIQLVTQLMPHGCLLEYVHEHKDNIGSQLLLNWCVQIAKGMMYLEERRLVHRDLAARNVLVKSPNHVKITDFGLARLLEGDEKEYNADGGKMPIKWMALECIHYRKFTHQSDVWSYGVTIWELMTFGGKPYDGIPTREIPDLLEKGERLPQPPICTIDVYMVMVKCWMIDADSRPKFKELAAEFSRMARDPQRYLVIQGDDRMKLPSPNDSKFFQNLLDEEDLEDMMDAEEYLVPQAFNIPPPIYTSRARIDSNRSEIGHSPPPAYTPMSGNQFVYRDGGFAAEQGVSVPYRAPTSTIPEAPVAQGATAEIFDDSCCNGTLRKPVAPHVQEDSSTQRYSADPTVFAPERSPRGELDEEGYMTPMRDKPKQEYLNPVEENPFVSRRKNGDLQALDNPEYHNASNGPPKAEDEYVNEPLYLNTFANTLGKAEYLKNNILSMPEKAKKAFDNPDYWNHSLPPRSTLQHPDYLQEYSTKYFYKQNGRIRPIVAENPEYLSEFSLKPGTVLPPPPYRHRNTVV

soluble ErbB4 ectodomain [2] = target: T2, soluble ErbB4 ectodomain (UniProt Q15303)
T2 sequence: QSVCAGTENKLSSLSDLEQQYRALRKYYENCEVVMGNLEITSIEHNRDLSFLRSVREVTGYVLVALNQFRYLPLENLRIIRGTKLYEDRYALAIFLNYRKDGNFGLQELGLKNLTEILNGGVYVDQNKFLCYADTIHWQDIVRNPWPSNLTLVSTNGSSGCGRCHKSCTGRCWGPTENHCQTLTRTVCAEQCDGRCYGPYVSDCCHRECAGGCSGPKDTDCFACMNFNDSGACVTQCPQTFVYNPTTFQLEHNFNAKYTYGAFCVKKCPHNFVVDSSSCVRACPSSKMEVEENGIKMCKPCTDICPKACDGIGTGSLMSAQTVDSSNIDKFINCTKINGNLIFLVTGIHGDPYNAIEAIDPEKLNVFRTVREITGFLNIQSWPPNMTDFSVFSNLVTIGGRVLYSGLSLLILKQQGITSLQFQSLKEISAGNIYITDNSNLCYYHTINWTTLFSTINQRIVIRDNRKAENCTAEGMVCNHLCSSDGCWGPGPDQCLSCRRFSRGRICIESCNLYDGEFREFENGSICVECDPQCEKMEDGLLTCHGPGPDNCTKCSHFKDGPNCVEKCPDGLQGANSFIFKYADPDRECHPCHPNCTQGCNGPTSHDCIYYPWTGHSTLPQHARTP

soluble ErbB4 ectodomain [3] = target: T2, soluble ErbB4 ectodomain; remark: listed apart in the source

binding result [1]: binds
relative proportion of the 80 kD carboxy-terminal fragment of the total ErbB4 in T-47D xenografts (Western blot with E-200), control IgG against mAb 1479 (soluble ErbB4 ectodomain [2]): 74%
relative proportion of the 100 kD ectodomain fragment of total ErbB4 in T-47D xenografts (Western blot with mAb 1464), control IgG against mAb 1479 (soluble ErbB4 ectodomain [3]): 9%
B1: anti-ErbB4 monoclonal antibody mAb 1479 (antibody, V domains shown)
VH: QVTLKESGPGILQPSQTLSLTCSFSGFSLSTYGIGVGWIRQPSGKGLEWLAHIWWNDNKYYNIALRSRLTISKDTSNNQVFLKIASVDTADTATYYCARIPDDHYFDYWGQGTTLTVSS
VL: DVLMTQTPLSLPVSLGDQASISCRSSQSIVHSNGNTYLEWYLQKPGQSPKLLIYKVSNRFSGVPDRFSGSGSGTDFTLKISRVEAEDLGVYYCFQGSHVPWTFGGGTKLEIK
notes: constant part of the IgG2 isotype; mouse monoclonal antibody, IgG2 isotype
